T1: human FcγRIIa(H) (allotype H131) (human, UniProt P12318 36-217)
T1 construct: Soluble analyte in SPR; also called hFcgRIIa(H); FcgRIIaH
T1 sequence: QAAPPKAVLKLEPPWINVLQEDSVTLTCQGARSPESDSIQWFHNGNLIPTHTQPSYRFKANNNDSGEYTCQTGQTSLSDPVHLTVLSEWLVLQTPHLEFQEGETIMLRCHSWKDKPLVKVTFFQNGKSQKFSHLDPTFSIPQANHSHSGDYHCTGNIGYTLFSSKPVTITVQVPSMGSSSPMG

T2: human FcγRIIb (human, UniProt P31994 43-217, limits assumed)
T2 construct: Soluble analyte in SPR; also called hFcgRIIb; FcgRIIb
T2 sequence: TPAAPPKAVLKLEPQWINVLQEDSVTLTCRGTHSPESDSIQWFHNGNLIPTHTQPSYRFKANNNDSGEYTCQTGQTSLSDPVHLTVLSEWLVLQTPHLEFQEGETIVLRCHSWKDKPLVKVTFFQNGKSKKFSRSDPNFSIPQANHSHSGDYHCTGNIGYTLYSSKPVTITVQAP

T3: human FcγRIIa(R) (allotype R131) (human, UniProt P12318 36-217)
T3 construct: Soluble analyte in SPR; also called hFcgRIIa(R); FcgRIIaR
T3 chain: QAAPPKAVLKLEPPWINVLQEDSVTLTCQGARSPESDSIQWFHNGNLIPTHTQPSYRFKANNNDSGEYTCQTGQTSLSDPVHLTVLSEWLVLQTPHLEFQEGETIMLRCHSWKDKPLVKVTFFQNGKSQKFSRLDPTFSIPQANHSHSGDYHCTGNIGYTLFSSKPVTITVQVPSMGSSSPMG


Legend:
Assay in all cases: SPR (Biacore), antibody captured, FcγR analyte, 25 C; normalised to captured antibody, GpH7-B3/GpL16-k0 = 100;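 also: antibodies held on sensor chips through immobilized antigen peptide, Protein A, Protein A/G or Protein L, with HBS-EP+ running buffer and FcγR in solution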
[1] = biological target: T4, human FcγRIa (human, UniProt P12314 16-292, limits assumed)
T4 construct: Soluble analyte in SPR; also called hFcgRIa; FcgRIa
Procedure: (§1) Interaction between each modified antibody and Fcγ receptor prepared in the manner described above was analyzed using the BIACORE™ T100 surface plasmon resonance system (GE Healthcare), BIACORE™ T200 surface plasmon resonance system (GE Healthcare), BIACORE™ A100 surface plasmon resonance system or BIACORE™ 4000 surface plasmon resonance system. HBS-EP+(GE Healthcare) was used for the running buffer, and measurements were carried out at 25° C. The chips used were chips in which antigen peptides, Protein A (Thermo Scientific), Protein A/G (Thermo Scientific) or Protein L (ACTIGEN® protein (Alltech or BioVision) were immobilized on the Series S Sensor Chip CM5 (GE Healthcare) or Series S Sensor Chip CM4 (GE Healthcare) by amine coupling, or chips in which preliminarily biotinylated antigen peptides were allowed to interact and then immobilized on the Series S Sensor Chip SA (certified) (GE Healthcare). The target antibodies were captured on these sensor chips, Fcγ receptor diluted with the running buffer was allowed to interact, followed by measurement of the amount of bound antibody. The amounts bound were compared between antibodies. However, since the amount of Fcγ receptor bound depends on the amount of captured antibody, the values used for comparison were first corrected by dividing the amount of Fcγ receptor bound by the captured amount of each antibody. Through reaction with 10 mM glycine-HCl at pH 1.5, the sensor chips were regenerated by washing off antibody captured on the sensor chips and used repeatedly.
(§2) Binding strength was evaluated according to the following method based on the results of analyzing the interaction with each FcγR. […] That value was then further multiplied by 100, and the resulting value was used as an indicator of relative binding activity to each FcγR.

[2] = biological target: T5, human FcγRIIIa(F) (allotype F158) (human, UniProt P08637 17-208, limits assumed)
T5 construct: also called hFcgRIIIa(F); FcgRIIIaF
Procedure: as §1, §2

[3] = biological target: T1, human FcγRIIa(H) (allotype H131)
Procedure: as §1, §2

[4] = biological target: T2, human FcγRIIb
Procedure: as §1, §2

[5] = biological target: T3, human FcγRIIa(R) (allotype R131)
Procedure: as §1, §2

T5 sequence (P08637 other isoform, or with tags, fused parts or gaps limits assumed): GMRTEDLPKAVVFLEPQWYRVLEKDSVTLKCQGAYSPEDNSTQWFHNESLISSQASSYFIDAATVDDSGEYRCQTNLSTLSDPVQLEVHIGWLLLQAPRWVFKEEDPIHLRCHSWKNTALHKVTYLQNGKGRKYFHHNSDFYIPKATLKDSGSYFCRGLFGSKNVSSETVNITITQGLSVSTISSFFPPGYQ
T4 sequence (P12314 16-292 limits assumed): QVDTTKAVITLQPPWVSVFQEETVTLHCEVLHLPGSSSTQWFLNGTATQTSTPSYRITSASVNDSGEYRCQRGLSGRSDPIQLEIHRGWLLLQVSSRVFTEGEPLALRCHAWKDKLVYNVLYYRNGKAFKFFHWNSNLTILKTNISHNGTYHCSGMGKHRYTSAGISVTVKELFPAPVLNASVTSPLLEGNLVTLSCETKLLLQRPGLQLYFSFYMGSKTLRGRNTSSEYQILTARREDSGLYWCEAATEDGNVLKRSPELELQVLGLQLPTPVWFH

| Binder | relative binding activity (parent antibody = 100) [1] | relative binding activity (parent antibody = 100) [2] | relative binding activity (parent antibody = 100) [3] | relative binding activity (parent antibody = 100) [4] | relative binding activity (parent antibody = 100) [5] |
| --- | --- | --- | --- | --- | --- |
| GpH7-B3 variant P329H / GpL16-k0 (antibody, human IgG1, Anti-glypican-3 human IgG1 with B3 constant region (G1d with K439E); position by EU numbering) heavy: not shown light: DIVMTQSPLSLPVTPGEPASISCQASESLVHSNRNTYLHWYLQKPGQSPQLLIYKVSNRFSGVPDRFSGSGSGTDFTLKISRVEAEDVGVYYCSQNTHVPPTFGQGTKVEIE | 50 % of control | -1 % of control | 0 % of control | -3 % of control | -1 % of control |
| GpH7-B3 variant I332P / GpL16-k0 (antibody, human IgG1, Anti-glypican-3 human IgG1 with B3 constant region; position by EU numbering) heavy: not shown light: DIVMTQSPLSLPVTPGEPASISCQASESLVHSNRNTYLHWYLQKPGQSPQLLIYKVSNRFSGVPDRFSGSGSGTDFTLKISRVEAEDVGVYYCSQNTHVPPTFGQGTKVEIE | 100 % of control | 14 % of control | 26 % of control | 41 % of control | 34 % of control |
| GpH7-B3 variant I332R / GpL16-k0 (antibody, human IgG1, Anti-glypican-3 human IgG1 with B3 constant region; position by EU numbering) heavy: not shown light: DIVMTQSPLSLPVTPGEPASISCQASESLVHSNRNTYLHWYLQKPGQSPQLLIYKVSNRFSGVPDRFSGSGSGTDFTLKISRVEAEDVGVYYCSQNTHVPPTFGQGTKVEIE | 95 % of control | 61 % of control | 70 % of control | 23 % of control | 28 % of control |
| GpH7-B3 variant A330S / GpL16-k0 (antibody, human IgG1, Anti-glypican-3 human IgG1 with B3 constant region; position by EU numbering) heavy: not shown light: DIVMTQSPLSLPVTPGEPASISCQASESLVHSNRNTYLHWYLQKPGQSPQLLIYKVSNRFSGVPDRFSGSGSGTDFTLKISRVEAEDVGVYYCSQNTHVPPTFGQGTKVEIE | 58 % of control | 0 % of control | 0 % of control | -3 % of control | 0 % of control |
| GpH7-B3 variant P329G / GpL16-k0 (antibody, human IgG1, Anti-glypican-3 human IgG1 with B3 constant region; position by EU numbering) heavy: not shown light: DIVMTQSPLSLPVTPGEPASISCQASESLVHSNRNTYLHWYLQKPGQSPQLLIYKVSNRFSGVPDRFSGSGSGTDFTLKISRVEAEDVGVYYCSQNTHVPPTFGQGTKVEIE | 92 % of control | 4 % of control | 1 % of control | 0 % of control |  |
| GpH7-B3 variant A330P / GpL16-k0 (antibody, human IgG1, Anti-glypican-3 human IgG1 with B3 constant region; position by EU numbering) heavy: not shown light: DIVMTQSPLSLPVTPGEPASISCQASESLVHSNRNTYLHWYLQKPGQSPQLLIYKVSNRFSGVPDRFSGSGSGTDFTLKISRVEAEDVGVYYCSQNTHVPPTFGQGTKVEIE | 87 % of control | 56 % of control | 25 % of control | 39 % of control | 42 % of control |
| GpH7-B3 variant P331G / GpL16-k0 (antibody, human IgG1, Anti-glypican-3 human IgG1 with B3 constant region; position by EU numbering) heavy: not shown light: DIVMTQSPLSLPVTPGEPASISCQASESLVHSNRNTYLHWYLQKPGQSPQLLIYKVSNRFSGVPDRFSGSGSGTDFTLKISRVEAEDVGVYYCSQNTHVPPTFGQGTKVEIE | 88 % of control |  |  |  | 13 % of control |
| GpH7-B3 variant I332K / GpL16-k0 (antibody, human IgG1, Anti-glypican-3 human IgG1 with B3 constant region; position by EU numbering) heavy: not shown light: DIVMTQSPLSLPVTPGEPASISCQASESLVHSNRNTYLHWYLQKPGQSPQLLIYKVSNRFSGVPDRFSGSGSGTDFTLKISRVEAEDVGVYYCSQNTHVPPTFGQGTKVEIE | 77 % of control |  | 59 % of control | 27 % of control | 12 % of control |
